US20070077578A1, “Diagnosis of (a risk of ) disease and monitoring of therapy” (PrimaGen Holding B.V., priority 2004, published 2007)

Tested on: AC133
Experiment: AC133 expression per 10,000 cells (quantified by U1A) in patients treated with GCSF
Format: in vivo, human
Settings: two patients treated with GCSF, compared to volunteers and all the other patients
Procedure: Isolation of nucleic acids from PBMC and NASBA amplification were performed as described in Example 2 with one modification: U1A was used instead of Beta Actin.
Two samples of patients who have been subjected to treatment with GCSF were tested. GCSF mobilizes stem cells from the bone marrow, so it is expected to find more AC133-expressing cells in the blood after a treatment with GCSF. It is clear from FIG. 16 that the AC133 expression in these two patients is much higher compared to volunteers and all the other patients.

B1: GCSF: mobilizes stem cells from the bone marrow (protein, UniProt P09919 31-207, looked up)
Granulocyte …: TPLGPASSLPQSFLLKCLEQVRKIQGDGAALQEKLVSECATYKLCHPEELVLLGHSLGIPWAPLSSCPSQALQLAGCLSQLHSGLFLYQGLLQALEGISPELGPTLDTLQLDVADFATTIWQQMEELGMAPALQPTQGAMPAFASAFQRRAGGVLVASHLQSFLEVSYRVLRHLAQP
AC133 expression per 10,000 cells: much higher
